B1: Speckle-type POZ protein (Homo sapiens), O43791 (parent)
chain: MSRVPSPPPPAEMSSGPVAESWCYTQIKVVKFSYMWTINNFSFCREEMGEVIKSSTFSSGANDKLKWCLRVNPKGLDEESKDYLSLYLLLVSCPKSEVRAKFKFSILNAKGEETKAMESQRAYRFVQGKDWGFKKFIRRDFLLDEANGLLPDDKLTLFCEVSVVQDSVNISGQNTMNMVKVPECRLADELGGLWENSRFTDCCLCVAGQEFQAHKAILAARSPVFSAMFEHEMEESKKNRVEINDVEPEVFKEMMCFIYTGKAPNLDKMADDLLAAADKYALERLKVMCEDALCSNLSVENAAEILILADLHSADQLKTQAVDFINYHASDVLETSGWKSMVVSHPHLVAEAYRSLASAQCPFLGPPRKRLKQS
partner: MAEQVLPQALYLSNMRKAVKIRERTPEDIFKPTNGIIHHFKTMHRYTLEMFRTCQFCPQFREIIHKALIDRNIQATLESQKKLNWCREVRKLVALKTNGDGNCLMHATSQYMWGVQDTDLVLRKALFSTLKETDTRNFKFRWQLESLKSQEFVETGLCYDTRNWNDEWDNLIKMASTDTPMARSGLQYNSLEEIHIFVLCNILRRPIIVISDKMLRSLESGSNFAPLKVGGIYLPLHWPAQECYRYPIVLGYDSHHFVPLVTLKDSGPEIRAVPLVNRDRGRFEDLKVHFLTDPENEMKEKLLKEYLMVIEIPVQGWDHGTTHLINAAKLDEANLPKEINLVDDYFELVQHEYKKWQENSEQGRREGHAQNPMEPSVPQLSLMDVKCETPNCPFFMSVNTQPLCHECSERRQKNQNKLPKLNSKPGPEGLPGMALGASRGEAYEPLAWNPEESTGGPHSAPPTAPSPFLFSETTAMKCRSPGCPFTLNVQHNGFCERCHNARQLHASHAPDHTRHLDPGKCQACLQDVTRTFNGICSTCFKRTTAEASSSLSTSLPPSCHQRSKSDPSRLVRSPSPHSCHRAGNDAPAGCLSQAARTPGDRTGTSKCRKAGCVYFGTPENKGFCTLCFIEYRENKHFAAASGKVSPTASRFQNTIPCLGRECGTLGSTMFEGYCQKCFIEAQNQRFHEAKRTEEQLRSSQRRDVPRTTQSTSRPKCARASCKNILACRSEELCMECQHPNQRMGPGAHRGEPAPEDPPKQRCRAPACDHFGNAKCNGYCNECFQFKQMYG
B2: Speckle-type POZ protein (Homo sapiens), O43791 (parent)
chain: B1 chain
partner: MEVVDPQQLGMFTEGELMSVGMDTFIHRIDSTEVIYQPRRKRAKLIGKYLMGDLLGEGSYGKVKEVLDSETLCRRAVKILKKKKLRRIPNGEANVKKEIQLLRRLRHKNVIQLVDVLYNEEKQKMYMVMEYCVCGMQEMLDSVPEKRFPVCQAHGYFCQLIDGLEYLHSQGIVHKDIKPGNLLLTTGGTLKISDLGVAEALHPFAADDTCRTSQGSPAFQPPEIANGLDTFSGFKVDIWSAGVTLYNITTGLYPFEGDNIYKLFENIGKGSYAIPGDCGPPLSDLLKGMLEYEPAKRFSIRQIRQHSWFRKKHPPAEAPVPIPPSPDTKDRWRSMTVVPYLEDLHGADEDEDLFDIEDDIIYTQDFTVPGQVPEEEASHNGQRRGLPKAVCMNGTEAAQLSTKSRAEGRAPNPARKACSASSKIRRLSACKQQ
B3: Speckle-type POZ protein (Homo sapiens), O43791 (parent)
chain: B1 chain
partner: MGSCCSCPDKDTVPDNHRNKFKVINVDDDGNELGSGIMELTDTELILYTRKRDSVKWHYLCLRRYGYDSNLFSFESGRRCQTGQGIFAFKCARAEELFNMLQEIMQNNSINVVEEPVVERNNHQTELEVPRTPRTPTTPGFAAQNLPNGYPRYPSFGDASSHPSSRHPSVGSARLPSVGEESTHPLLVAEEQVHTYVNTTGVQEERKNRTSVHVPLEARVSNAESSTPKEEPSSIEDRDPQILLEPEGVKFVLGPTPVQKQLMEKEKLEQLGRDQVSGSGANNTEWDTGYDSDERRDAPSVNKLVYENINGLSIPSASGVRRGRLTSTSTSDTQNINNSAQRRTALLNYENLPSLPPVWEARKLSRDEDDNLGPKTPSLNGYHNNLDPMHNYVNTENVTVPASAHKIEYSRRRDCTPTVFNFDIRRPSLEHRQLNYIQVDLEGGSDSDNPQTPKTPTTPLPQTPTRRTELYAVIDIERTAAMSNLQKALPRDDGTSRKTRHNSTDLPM
B4: Speckle-type POZ protein (Homo sapiens), O43791 (parent)
chain: B1 chain
partner: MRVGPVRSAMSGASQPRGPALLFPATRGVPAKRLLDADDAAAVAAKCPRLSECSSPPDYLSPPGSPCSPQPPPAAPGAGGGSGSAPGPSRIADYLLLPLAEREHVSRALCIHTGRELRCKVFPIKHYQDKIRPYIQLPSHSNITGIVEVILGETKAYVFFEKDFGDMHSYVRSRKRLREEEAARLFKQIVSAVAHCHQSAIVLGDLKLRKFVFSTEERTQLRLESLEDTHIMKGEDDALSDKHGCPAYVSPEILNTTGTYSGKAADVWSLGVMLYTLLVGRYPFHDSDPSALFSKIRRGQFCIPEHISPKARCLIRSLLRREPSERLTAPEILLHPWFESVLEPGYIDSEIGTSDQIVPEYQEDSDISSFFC
B5: Speckle-type POZ protein (Homo sapiens), O43791 (parent)
chain: B1 chain
partner: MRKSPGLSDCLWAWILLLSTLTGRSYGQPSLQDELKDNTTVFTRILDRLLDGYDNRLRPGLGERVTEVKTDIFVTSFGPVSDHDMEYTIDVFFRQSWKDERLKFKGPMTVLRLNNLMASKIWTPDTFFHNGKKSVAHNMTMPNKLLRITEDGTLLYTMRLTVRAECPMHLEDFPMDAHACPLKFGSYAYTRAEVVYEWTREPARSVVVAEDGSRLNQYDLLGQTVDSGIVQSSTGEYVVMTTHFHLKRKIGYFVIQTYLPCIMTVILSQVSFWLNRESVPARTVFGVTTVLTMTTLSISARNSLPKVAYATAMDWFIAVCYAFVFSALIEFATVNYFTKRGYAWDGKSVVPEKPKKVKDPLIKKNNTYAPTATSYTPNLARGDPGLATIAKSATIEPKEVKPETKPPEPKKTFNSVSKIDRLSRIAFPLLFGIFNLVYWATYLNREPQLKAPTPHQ
B6: Speckle-type POZ protein (Homo sapiens), O43791 (parent)
chain: B1 chain
partner: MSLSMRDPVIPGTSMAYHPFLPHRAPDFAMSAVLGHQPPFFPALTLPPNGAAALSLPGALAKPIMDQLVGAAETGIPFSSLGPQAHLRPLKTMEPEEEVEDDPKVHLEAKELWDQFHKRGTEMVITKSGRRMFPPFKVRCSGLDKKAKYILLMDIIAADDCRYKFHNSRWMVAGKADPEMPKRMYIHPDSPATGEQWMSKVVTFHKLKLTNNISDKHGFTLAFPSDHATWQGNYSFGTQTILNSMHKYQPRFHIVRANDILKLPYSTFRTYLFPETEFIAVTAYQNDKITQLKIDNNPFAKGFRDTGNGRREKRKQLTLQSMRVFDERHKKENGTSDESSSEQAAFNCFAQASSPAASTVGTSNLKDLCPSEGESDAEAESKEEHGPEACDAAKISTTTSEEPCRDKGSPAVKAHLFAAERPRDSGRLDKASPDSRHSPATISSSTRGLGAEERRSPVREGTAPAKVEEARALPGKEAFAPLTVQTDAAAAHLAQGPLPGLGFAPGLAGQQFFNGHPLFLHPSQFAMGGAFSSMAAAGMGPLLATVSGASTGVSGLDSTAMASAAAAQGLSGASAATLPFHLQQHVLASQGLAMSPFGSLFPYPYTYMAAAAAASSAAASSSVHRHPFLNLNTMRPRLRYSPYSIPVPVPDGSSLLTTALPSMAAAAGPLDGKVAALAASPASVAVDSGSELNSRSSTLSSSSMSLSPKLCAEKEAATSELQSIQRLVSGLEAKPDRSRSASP

In the first test the parent is B1. The conditions noted are these: with tnap3_human TNFAIP3, P21580.
Consider Y87C, for which the “effect of a mutation on the interaction” value is given as “with no effect”.

Variants of B1 are the subject of the next test. The conditions noted are these: with tnap3_human TNFAIP3, P21580. This is another data set of the same source.
For F133L, the “effect of a mutation on the interaction” value is recorded as “with no effect”.

Another test covers variants of B2. To be noted: with stk11_human STK11, Q15831.
Consider F133V, for which the “effect of a mutation on the interaction” value was “with no effect”.

In another test the parent is B2. To be noted: with stk11_human STK11, Q15831. The source holds these as a separate data set.
F133L: the “effect of a mutation on the interaction” value is on record as “with no effect”.

In the next test the parent is B2. The conditions noted are these: with stk11_human STK11, Q15831. This is another data set of the same source.
With Y87C, the “effect of a mutation on the interaction” value was “with no effect”.

Variants of B2 are the subject of another test. To be noted: with stk11_human STK11, Q15831. This is another data set of the same source.
On to F102C, for which the “effect of a mutation on the interaction” value is “with no effect”.

A further test covers variants of B3. The conditions noted are these: with frs2_human FRS2, Q8WU20.
With F133V, the “effect of a mutation on the interaction” value is reported as “with no effect”.

In the next test the parent is B3. To be noted: with frs2_human FRS2, Q8WU20. This is another data set of the same source.
F133L: the “effect of a mutation on the interaction” value is given as “with no effect”.

The variants in the next test derive from B4. To be noted: with trib1_human TRIB1, Q96RU8.
As for F102C, the “effect of a mutation on the interaction” value was “with no effect”.

In a further test the parent is B4. The conditions noted are these: with trib1_human TRIB1, Q96RU8. This is another data set of the same source.
In the case of F133V, the “effect of a mutation on the interaction” value was “causing an interaction”.

In another test the parent is B4. To be noted: with trib1_human TRIB1, Q96RU8. This is another data set of the same source.
As for F133L, the “effect of a mutation on the interaction” value is “causing an interaction”.

Another test covers variants of B4. The conditions noted are these: with trib1_human TRIB1, Q96RU8. The source holds these as a separate data set.
As to Y87C, the “effect of a mutation on the interaction” value is listed as “with no effect”.

Variants of B5 are the subject of another test. To be noted: with gbra1_human GABRA1, P14867.
For the variant Y87C, the “effect of a mutation on the interaction” value is on record as “with no effect”.

Variants of B6 are the subject of another test. The conditions noted are these: with tbx3_human TBX3, O15119.
For F102C, the “effect of a mutation on the interaction” value was “with no effect”.

The variants in the next test derive from B6. The conditions noted are these: with tbx3_human TBX3, O15119. This is another data set of the same source.
Turning to F133L, the “effect of a mutation on the interaction” value is “with no effect”.

For the origin of these results see IntAct's records for PubMed 35512704.
